In US20200190592A1, “PME-1 AS A BIOMARKER TO PREDICT AND DIAGNOSE AN INCREASED RISK OF ENDOMETRIAL CANCER AND GENE SILENCING OF PME-1 TO INHIBIT EPITHELIAL TO MESENCHYMAL TRANSITION” (Medical Diagnostic Laboratories, L.L.C., priority 2018, published 2020):
Residue numbers refer to the chain shown, from its start. Blank lines part the entries; values can stand above or below the molecule they belong to.

How the values were obtained:
RL95-2 cells = assay: TUNEL assay; assay type: cell-based, human; conditions: 100 nM siRNA, vs control siRNA; DNase positive control
From the text: To test for the involvement of apoptosis, we used siRNA against PME-1 or control siRNA and conducted an immunofluorescence assay called a TUNEL assay. In this assay, all cells were stained blue with the nuclear stain, DAPI, and cells that were undergoing apoptosis would stain green with the addition of fluorescein, which bound to fragmented DNA. Fragmented DNA is a hallmark of apoptotic cells. […] A positive control was included in the assay to determine that the assay conditions were optimal. In the positive control, RL95-2 cells were treated with DNase.
RL95-2 cells were plated in a chamber-slide and allowed to grow over night at 37° C. Cells were transfected the next day with 100 nM of siRNA (Thermo Scientific) using Dharmafect 1 transfection reagent (siRNA sequences are summarized in Table S2). Transfections were repeated on day four and the cultures were terminated the day after. The assay was performed according to the manufacturer's instructions (Roche Applied Science, counterstained with DAPI and photographed using Leica DM16000 B microscope. Cells incubated with 1U/μl of DNase I (Life Technologies) served as a positive control. The experiment was repeated three times.

[1] = target: T1, FLAG-tagged PME-1 S156A (catalytically inactive mutant) (human, UniProt Q9Y570 1-386); assay: FLAG co-immunoprecipitation from ECC-1 lysate, western blot with anti-Ppp6c
T1 construct: Expressed in ECC-1 cells and pulled down from lysate with FLAG resin; also called FLAG-PME-1 S156A; FLAG PME-1 S156A; not shown: FLAG tag; an N-terminal FLAG vector p3XFLAG-CMV-10 is named in the methods for RL95-2 cells
T1 sequence (looked up): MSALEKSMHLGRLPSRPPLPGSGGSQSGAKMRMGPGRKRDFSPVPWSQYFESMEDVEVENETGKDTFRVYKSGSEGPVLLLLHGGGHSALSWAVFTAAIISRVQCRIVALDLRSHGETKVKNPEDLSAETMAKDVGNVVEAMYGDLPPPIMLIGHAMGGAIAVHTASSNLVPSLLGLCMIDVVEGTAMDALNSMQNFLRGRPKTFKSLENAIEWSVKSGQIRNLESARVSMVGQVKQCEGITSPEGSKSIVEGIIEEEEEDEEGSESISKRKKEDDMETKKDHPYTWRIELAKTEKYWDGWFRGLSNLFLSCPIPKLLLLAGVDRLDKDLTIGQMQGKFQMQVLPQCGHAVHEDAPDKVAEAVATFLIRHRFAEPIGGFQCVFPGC

[2] = target: T2, FLAG-tagged PME-1 (over-expression of wild-type PME-1) (human, UniProt Q9Y570 1-386); assay: as above
T2 construct: Expressed in ECC-1 cells and pulled down from lysate with FLAG resin; also called FLAG-PME-1; protein methylesterase 1; not shown: FLAG tag; an N-terminal FLAG vector p3XFLAG-CMV-10 is named in the methods for RL95-2 cells
T2 sequence (looked up): T1 sequence (looked up) with A156S

Molecule: PPME1 siRNA no. 1: siRNA, SEQ ID NO: 4: TGG CTG GTG TTG ATA GAT T, bp 959-977 (guide TGGCTGGTGTTGATAGATT; listed as DNA, chemistry not given here; listed as Homo sapiens)
- detection of apoptotic cells (RL95-2 cells): did not lead to detection of apoptotic cells

- binding result [1]: no binding
- binding result [2]: no binding
B1: Endogenous Ppp6c, the catalytic subunit of PP6 (enzyme, human, UniProt O00743 1-305, looked up)
chain: MAPLDLDKYVEIARLCKYLPENDLKRLCDYVCDLLLEESNVQPVSTPVTVCGDIHGQFYDLCELFRTGGQVPDTNYIFMGDFVDRGYYSLETFTYLLALKAKWPDRITLLRGNHESRQITQVYGFYDECQTKYGNANAWRYCTKVFDMLTVAALIDEQILCVHGGLSPDIKTLDQIRTIERNQEIPHKGAFCDLVWSDPEDVDTWAISPRGAGWLFGAKVTNEFVHINNLKLICRAHQLVHEGYKFMFDEKLVTVWSAPNYCYRCGNIASIMVFKDVNTREPKLFRAVPDSERVIPPRTTTPYFL
notes: Endogenous protein of ECC-1 cell lysate, probed by western blot with anti-Ppp6c; also called protein phosphatase 6 catalytic subunit
